Assay results taken from patent US20190086411A1 (ROCHE SEQUENCING SOLUTIONS, published 2019).

biological target: T1, human prostate specific antigen (PSA) labelled with biotin (human, UniProt P07288 25-261, labelled with biotin using EZ-Link NHS-PEG4-biotinylation kit); test: Double Substitution/Deletion Array, biotin-PSA, Streptavidin Cy5 detection
T1 construct: Applied in solution at 100 ng/ml to the peptide arrays and detected with Streptavidin Cy5
Procedure: (§1) Binding Assay: PSA labelled with biotin using EZ-Link NHS-PEG4-biotinylation kit (Thermo Fisher Sci., Inc. Rockford, Ill.) was incubated in SecureSeal hybridization chamber (Grace Bio-Labs, Bend, Oreg.) at concentration 100 ng/ml in 1×TE binding buffer with 1% alkali soluble casein at 25° C. for 12 hrs. Array was washed 3× with 1×TE buffer and stained with Streptavidin Cy5 in 1× binding buffer with 1% alkali soluble casein at 25 C for 1 hr, and washed 3× with 1×TE buffer and finally with 0.1×TE buffer and scanned using a 2 micrometer MS200 scanner (Roche/Nimblegen, Madison, Wis.).
The top sequences selected from the Extension Array (Table 2, column 3) were used to design Double Substitution/Deletion Arrays as shown in column 4 of Table 2. Single and double substitution scan performed as described in Example 3 were used to optimize PSA binders to achieve highest signal intensity and confirm specificity of each amino acid in motif sequence (Table 2, column 5).

T1 sequence (P07288 25-261 limits assumed): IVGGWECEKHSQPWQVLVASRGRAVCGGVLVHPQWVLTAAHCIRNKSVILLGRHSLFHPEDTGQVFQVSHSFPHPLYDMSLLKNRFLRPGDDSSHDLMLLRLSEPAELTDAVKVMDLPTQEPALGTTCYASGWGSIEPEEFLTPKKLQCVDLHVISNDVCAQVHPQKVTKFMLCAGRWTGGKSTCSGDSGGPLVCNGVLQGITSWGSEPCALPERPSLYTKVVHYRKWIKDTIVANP

| Molecule | binding result |
| --- | --- |
| ASEWTVYAGNK | binds |
| GTGWEVHLGKG | binds |
| QSCRSILYGDG | binds |
| GTGFEVYIPGA | binds |

biological target: human prostate specific antigen (PSA) labelled with biotin (human) (UniProt P07288); test: 5-mer peptide microarray, biotin-PSA 100 ng/ml, Streptavidin Cy5 detection
Sequence (P07288 25-261 limits assumed): as above

| Molecule | rank by binding signal to PSA (among 405 top sequences) | rank in the list of 405 sequences with the highest average signal intensity |
| --- | --- | --- |
| WEVHL (peptide) | 28 rank |  |
| WTVYA (peptide) | 3 rank |  |
| FEVYL (peptide) | 1 rank |  |
| RSILY (peptide) |  | 307 rank |

biological target: T1, human prostate specific antigen (PSA) …; test: Extension Array (160,000 members, 5 replicates), biotin-PSA, Streptavidin Cy5 detection
Procedure: as §1
Two dominant F[QET]VY[LI] and W[QET]V[YH][LAV] clusters described above were related by having similar amino acids F or W at position 1 and V at position 3. To find other possible binder motifs we excluded sequences with these features from the 5-mer Array data and performed PEPLIB analysis with top 32 sequences from the remaining dataset as shown in FIG. 11. […] Four sequences, FEVYL (SEQ ID NO: 1), WTVYA (SEQ ID NO: 2), WEVHL (SEQ ID NO: 3), and RSILY (SEQ ID NO: 4), selected from the 5-mer Array were extended by all possible dimers at both N- and C-terminus using all 20 natural amino acids (×) to design Extension Arrays each of them consisting of 160,000 members synthesized in 5 replicates (Table 2). Top twelve sequences for each library selected by signal intensity of PSA binding were used to generate Logo plots shown in FIG. 12. […] For example, FEVYL motif (SEQ ID NO: 1) prefers exclusively P at the C-terminus, WTVYA motif (SEQ ID NO: 2) prefers acidic amino acid either D or E at the N-terminus and G at the C-terminus, whereas RSILY motif (SEQ ID NO: 4) prefers C at the C-terminus, an amino acid that was not present in the 5-mer arrays.

| Molecule | binding result |
| --- | --- |
| TGWEVHLGK | binds |
| SEWTVYAGN | binds |
| NGFEVYLPG | binds |
| SCRSILYGQ | binds |
